This note sets out measurements from patent US20230374157A1.

The koff is the rate constant with which the complex falls apart. As a reminder, the kon is a measure of how fast the partners come together. A high value points to fast association.

For assay [1], the target named is His-tagged human HER3 extracellular domain (Acro ER3-H5223) (human) (UniProt P21860). In words: BLI, SI-1R12 covalently coupled to AR2G sensors, monomeric HER3 ECD in solution, 1:1 fit. (In general: Biolayer interferometry detects binding as a change in optical thickness at a sensor tip.)
The target of assay [2] is His-tagged human EGFR extracellular domain (expressed and purified in-house) (human) (UniProt P00533). The assay can be described thus: BLI, antibody on AHC tips, monomeric EGFR ECD in solution, 1:1 fit.
Assay [3] addresses human His-tagged HER3 extracellular domain (in-house expressed) (human) (UniProt P21860). The assay can be described thus: BLI sandwich assay, antibody held on immobilized biotinylated EGFR, 500 nM HER3 ECD in solution, 1:1 fit.
The target of assay [4] is His-tagged human HER3 extracellular domain (Acro ER3-H5223) (human) (UniProt P21860). The assay can be described thus: BLI, antibody on AHC tips, monomeric HER3 ECD in solution, 1:1 fit.
Assay [5] has as its target biotinylated human EGFR extracellular domain (Acro EGF-H82E3) (human) (UniProt P00533). In words: BLI avidity format, biotinylated EGFR ECD on SA sensors, antibody in solution, 1:1 fit.

Chain of SI-1X4.2, nimotuzumab-based EGFR x HER3 bispecific antibody with MM-111 anti-HER3 scFv (heavy): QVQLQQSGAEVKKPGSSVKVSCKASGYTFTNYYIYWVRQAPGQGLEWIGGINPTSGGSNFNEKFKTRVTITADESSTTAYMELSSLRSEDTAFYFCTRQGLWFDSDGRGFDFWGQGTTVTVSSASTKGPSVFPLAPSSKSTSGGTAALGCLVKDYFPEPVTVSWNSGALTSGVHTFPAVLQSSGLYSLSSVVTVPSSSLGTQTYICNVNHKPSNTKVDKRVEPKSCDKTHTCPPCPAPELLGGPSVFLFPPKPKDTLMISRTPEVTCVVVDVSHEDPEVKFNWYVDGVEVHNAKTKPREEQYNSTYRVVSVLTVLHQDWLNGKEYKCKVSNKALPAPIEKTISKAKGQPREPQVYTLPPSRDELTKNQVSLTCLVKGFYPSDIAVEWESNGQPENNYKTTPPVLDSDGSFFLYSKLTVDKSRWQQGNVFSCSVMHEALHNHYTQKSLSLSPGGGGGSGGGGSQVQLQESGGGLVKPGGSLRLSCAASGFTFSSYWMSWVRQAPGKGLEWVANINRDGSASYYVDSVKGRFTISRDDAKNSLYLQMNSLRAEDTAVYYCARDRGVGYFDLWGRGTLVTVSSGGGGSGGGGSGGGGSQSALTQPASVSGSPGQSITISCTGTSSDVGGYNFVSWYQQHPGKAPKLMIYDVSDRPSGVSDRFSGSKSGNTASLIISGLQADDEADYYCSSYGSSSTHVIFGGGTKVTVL
Chain of SI-1X4.2, nimotuzumab-based EGFR x HER3 bispecific antibody with MM-111 anti-HER3 scFv (light): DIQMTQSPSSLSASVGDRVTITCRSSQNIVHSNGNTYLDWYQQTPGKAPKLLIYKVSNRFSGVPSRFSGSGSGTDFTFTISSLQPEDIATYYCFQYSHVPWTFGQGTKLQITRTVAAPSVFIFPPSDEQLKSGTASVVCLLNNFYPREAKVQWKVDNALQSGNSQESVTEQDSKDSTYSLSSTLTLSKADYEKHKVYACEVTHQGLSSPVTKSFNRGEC

In assay [1], “SI-1R12 (MM-111), HER2 x HER3 bispecific human serum albumin fusion (bispecific antibody)” showed a Kd of 95.6 nM, a koff of 0.0422 s⁻¹ and an on-rate constant (kon) of 441000 M⁻¹ s⁻¹.
For “SI-1X2, panitumumab-based EGFR x HER3 bispecific antibody with MM-111 anti-HER3 scFv”, the Kd in assay [2] was found to be 2.77 nM; in assay [3], 770 nM; in assay [4], 131 nM.
“SI-1X4.2, nimotuzumab-based EGFR x HER3 bispecific antibody with MM-111 anti-HER3 scFv”: the Kd turned out to be 0.398 nM in assay [5], 18.8 nM in assay [2], 165 nM in assay [3] and 146 nM in assay [4]. Further, the dissociation rate constant (koff) in assay [5] is 4.25e-05 s⁻¹; in assay [2], 0.00202 s⁻¹; in assay [3] it was 0.0459 s⁻¹; in assay [4], 0.038 s⁻¹. Further, the on-rate constant (kon) turned out to be 107000 M⁻¹ s⁻¹ in assay [5], 108000 M⁻¹ s⁻¹ in assay [2], 279000 M⁻¹ s⁻¹ in assay [3] and 260000 M⁻¹ s⁻¹ in assay [4].
With “SI-1X6.4, bispecific tetravalent anti-EGFR x HER3 antibody (cetuximab variable regions with mouse framework, MM-111 anti-HER3 scFv) (bispecific antibody)”, the Kd in assay [2] is 5.38 nM; in assay [3], 617 nM; in assay [4], 107 nM.
